Data as given in IntAct's records for PubMed 23511974.

B1: Centrosomal protein of 135 kDa (Homo sapiens), Q66GS9 (parent)
chain: MTTAVERKYINIRKRLDQLGYRQTLTVECLPLVEKLFSDLVHTTESLRQSKLSAVKAEKESANFDFVLEPYKLENARLSRENNELYLELMKLREHSDQHVKELKTSLKKCARETADLKFLNNQYAHKLKLLEKESKAKNERIQQLQEKNLHAVVQTPGGKKRSIAFRRQRMQIDEPVPPSEVSSYPVPQPDDPYIADLLQVADNRIQELQQEVHQLQEKLAMMESGVRDYSKQIELREREIERLSVALDGGRSPDVLSLESRNKTNEKLIAHLNIQVDFLQQANKDLEKRIRELMETKETVTSEVVNLSNKNEKLCQELTEIDQLAQQLERHKEEVLETADKELGEAKKEIKRKLSEMQDLEETMAKLQLELNLCQKEKERLSDELLVKSDLETVVHQLEQEKQRLSKKVESFAVTERQLTLEVERMRLEHGIKRRDRSPSRLDTFLKGIEEERDYYKKELERLQHIIQRRSCSTSYSAREKSSIFRTPEKGDYNSEIHQITRERDELQRMLERFEKYMEDIQSNVKLLTAERDKLSVLYNEAQEELSALRKESTQTTAPHNIVSLMEKEKELALSDLRRIMAEKEALREKLEHIEEVSLFGKSELEKTIEHLTCVNHQLESEKYELKSKVLIMKETIESLENKLKVQAQKFSHVAGDSSHQKTEVNSLRIVNEQLQRSVDDYQHRLSIKRGELESAQAQIKILEEKIDELNLKMTSQDEEAHVMKKTIGVIDKEKDFLQETVDEKTEKIANLQENLANKEKAVAQMKIMISECESSVNQLKETLVNRDREINSLRRQLDAAHKELDEVGRSREIAFKENRRLQDDLATMARENQEISLELEAAVQEKEEMKSRVHKYITEVSRWESLMAAKEKENQDLLDRFQMLHNRAEDWEVKAHQAEGESSSVRLELLSIDTERRHLRERVELLEKEIQEHINAHHAYESQISSMAKAMSRLEEELRHQEDEKATVLNDLSSLRELCIKLDSGKDIMTQQLNSKNLEFERVVVELENVKSESDLLKKQLSNERHTVKNLESLLATNRDKEFHSHLTSHEKDTEIQLLKEKLTLSESKLTSQSRENTMLRAKVAQLQTDYDALKRQISTERYERERAIQEMRRHGLATPPLSSTLRSPSHSPEHRNV
partner: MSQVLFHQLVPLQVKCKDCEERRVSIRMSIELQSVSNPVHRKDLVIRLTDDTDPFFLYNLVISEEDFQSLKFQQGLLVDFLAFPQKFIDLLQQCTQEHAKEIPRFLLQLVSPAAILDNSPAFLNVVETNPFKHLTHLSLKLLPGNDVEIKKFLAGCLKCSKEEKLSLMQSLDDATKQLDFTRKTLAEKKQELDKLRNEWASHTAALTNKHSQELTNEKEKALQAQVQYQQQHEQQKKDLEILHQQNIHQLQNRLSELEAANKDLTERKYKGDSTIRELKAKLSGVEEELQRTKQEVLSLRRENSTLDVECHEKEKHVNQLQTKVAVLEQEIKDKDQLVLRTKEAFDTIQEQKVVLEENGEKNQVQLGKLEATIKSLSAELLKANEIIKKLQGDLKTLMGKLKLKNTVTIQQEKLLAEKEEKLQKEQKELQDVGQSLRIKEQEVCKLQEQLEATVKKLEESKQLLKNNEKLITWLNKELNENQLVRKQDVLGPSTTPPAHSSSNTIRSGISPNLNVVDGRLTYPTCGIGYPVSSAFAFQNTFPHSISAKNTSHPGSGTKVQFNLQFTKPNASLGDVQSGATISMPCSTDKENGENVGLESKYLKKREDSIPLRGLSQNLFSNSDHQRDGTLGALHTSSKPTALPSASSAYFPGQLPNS

Variants of: B1
Settings: with sas6_human SASS6, Q6UVJ0

effect of a mutation on the interaction	Variant
disrupting interaction	L588P
